Results as given in US20240117033A1 (Harvard, published 2024).
Changes are numbered by the printed parent chain.

T1: Mus musculus Mfsd2a with a single point mutation (Q67H), purified in LMNG/CHS/GDN detergent (Mus musculus, UniProt Q9DA75 1-534, limits assumed)
T1 construct: Membrane transporter expressed in HEK293S cells and purified in detergent; also called mouse Mfsd2a Q67H
T1 sequence (looked up): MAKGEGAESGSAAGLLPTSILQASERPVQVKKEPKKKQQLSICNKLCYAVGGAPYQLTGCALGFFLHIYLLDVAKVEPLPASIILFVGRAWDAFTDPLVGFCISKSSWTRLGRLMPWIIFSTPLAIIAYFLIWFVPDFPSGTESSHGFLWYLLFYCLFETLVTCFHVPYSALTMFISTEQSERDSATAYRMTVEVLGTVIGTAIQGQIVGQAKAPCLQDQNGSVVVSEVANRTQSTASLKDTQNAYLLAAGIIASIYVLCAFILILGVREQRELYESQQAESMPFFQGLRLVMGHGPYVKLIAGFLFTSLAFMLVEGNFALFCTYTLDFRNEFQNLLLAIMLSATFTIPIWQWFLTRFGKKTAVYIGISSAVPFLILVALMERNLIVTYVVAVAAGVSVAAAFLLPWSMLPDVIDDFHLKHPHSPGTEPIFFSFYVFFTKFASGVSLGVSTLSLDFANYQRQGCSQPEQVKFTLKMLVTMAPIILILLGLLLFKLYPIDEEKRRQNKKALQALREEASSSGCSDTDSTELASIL

T2: Mouse Mfsd2a, wild type (endogenous on brain endothelial cells of wildtype mice); stably expressed in HEK293 … (mouse, UniProt Q9DA75 1-534)
T2 construct: whole, on cells; also called endogenous Mfsd2a
T2 sequence (looked up): T1 sequence (looked up) with H67Q

B1: Anti-Mfsd2a scFv (ScFv of SEQ ID NO: 7) (scFv)
scFv: QPSSVSANPGETVKITCSGARYGYGWYQQKSPGSALVTLIYANNIRPSAIPSRFSGSKSGSTATLTITGVRAEDEAVYYCGNEDSITYAAFGAGTTLTVLGGSSRSSGGGGSSGGGGSAVTLDESGGGLQTPKGGLSLVCKASGFTFSSYDMAWVRQAPGKGLEWVAGITSTGSYTNYGAAVKGRATISRDNGQSTVRLQLNSLRAEDTATYFCAKSSFGCPYSCWYDIAGSIDAWGHGTEVIVS
notes: Isolated by phage display from chickens immunized with lipoparticles containing mouse Mfsd2a; Expressed as an scFv-Fc fusion with a human Fc; the scFv fragment was released by papain cleavage and purified by ion exchange; also called single-chain variable fragment
B2: D1 antibody (with CDRs of SEQ ID NOs: 1-6) (antibody, V domains shown)
VH: AVTLDESGGGLQTPKGGLSLVCKASGFTFSSYDMAWVRQAPGKGLEWVAGITSTGSYTNYGAAVKGRATISRDNGQSTVRLQLNSLRAEDTATYFCAKSSFGCPYSCWYDIAGSIDAWGHGTEVIVSS
VL: ALTQPSSVSANPGETVKITCSGARYGYGWYQQKSPGSALVTLIYANNIRPSAIPSRFSGSKSGSTATLTITGVRAEDEAVYYCGNEDSITYAAFGAGTTLTVL

Key:
[1] = molecular target: T1, Mus musculus Mfsd2a with a single point …; assay: cryo-EM of the complex, scFv as fiducial mark
From the text: Mouse Mfsd2a was over-expressed in HEK293 cells and purified for structural studies. A fortuitous loss-of-function single point mutation Q67H (FIG. 6D) was identified that presumably arrests the transporter in an outward-facing conformation based on its location near the typical extracellular gate area in MFS transporters. It was theorized that this might reduce conformational heterogeneity and selected this variant for structural studies. The purified protein was biochemically stable and appeared monodisperse on size exclusion chromatography (FIG. 6A). To obtain the most homogenous samples for cryo-EM studies, the proteins were screened after being purified under various conditions. Mfsd2a purified in lauryl maltose neopentyl glycol/cholesteryl hemisuccinate/glycol-diosgenin (LMNG/CHS/GDN) detergent mixture was selected for further structural studies as particles appeared to be homogeneous in size and shape. Since Mfsd2a is small in size (59 kDa) with few features outside the micelle, it presents challenges for cryo-EM studies. To aid the particle alignment, we used a single-chain variable fragment (scFv) of antibody that binds to the extracellular side of Mfsd2a as a fiducial mark. This strategy permitted determination of the cryo-EM structure of Mfsd2a at 3.5 Å resolution (FIG. 1B; FIGS. 7A-7F).

[2] = molecular target: T2, Mouse Mfsd2a, wild type (endogenous on …); assay: IV injection into adult mice (10 ug/ml), brain sections stained with fluorescent secondary antibody
Protocol: The specificity of the antibody described herein (D1, with CDRs of SEQ ID NOs: 1-6) was tested. IV-injection of D1 antibody or control antibody was IV injected at 10 ug/ml to adult mice. The antibodies were permitted to circulate for 15 minutes, followed by 10 ml PBS perfusion and fixation. Brains were sectioned and stained with fluorescent labeled secondary antibody. […] It specifically binds to the endogenous Mfsd2a that is expressed on the luminal side of the brain endothelial cell plasma membrane in the wildtype mice, absence in the Mfsd2a knockout mice. Control antibody injected animals show no staining.

Binder | binding result [1] | binding result [2]
B1 | binds | –
B2 | – | binds
